Measured values: PMC10120378
Read-outs that look alike come from different tables or passages of the source.

B1: cruciform DNA (structured_DNA)
DNA 1: CCTAGCAAGGGGCTGCTACCTTTGGTAGCAGCCTGAGCGGTGG
DNA 2: CCACCGCTCAACTCAACTGCTTTGCAGTTGAGTCCTTGCTAGG
B2: linear DNA of random sequence (40 bp) (dsDNA)
DNA 1: CCGACTAAGTACATGTGAGAATTTTGCTGCCTTCGAACCT
DNA 2: AGGTTCGAAGGCAGCAAAATTCTCACATGTACTTAGTCGG

Assays:
Assay in all cases: fluorescence polarization
HUα2 P63A [1] = biological target: T1, HUα2 P63A (Escherichia coli (MG1655-derived …, UniProt P0ACF0 1-90, P63A))
HUα2 wild-type [2] = biological target: T2, HUα2 wild-type (Escherichia coli (MG1655-derived …, UniProt P0ACF0 1-90))
HUα2 wild-type [3] = biological target: T2, HUα2 wild-type; remark: listed apart in the source
HUα2 P63A [4] = biological target: T1, HUα2 P63A; remark: listed apart in the source

Row | Binder | Kd (HUα2 P63A [1]) [nM] | Kd (HUα2 wild-type [2]) [nM] | Kd (HUα2 wild-type [3]) [nM] | binding result (HUα2 P63A [4])
1 | B1 | 352 | 178 ± 22 |  | 
2 | B2 |  |  | 51 ± 4 | binds
